Among the data in patent US20050037420A1 (published 2005) are OD410 nm values, retold here.

The assay has as its target T1, full-length NSM protein (putative movement protein of Tomato Spotted Wilt Virus) obtained from the IMPACT … (Tomato Spotted Wilt Virus, UniProt P36292 1-301).
T1 construct: mature; also called soluble NSM protein
T1 sequence (looked up): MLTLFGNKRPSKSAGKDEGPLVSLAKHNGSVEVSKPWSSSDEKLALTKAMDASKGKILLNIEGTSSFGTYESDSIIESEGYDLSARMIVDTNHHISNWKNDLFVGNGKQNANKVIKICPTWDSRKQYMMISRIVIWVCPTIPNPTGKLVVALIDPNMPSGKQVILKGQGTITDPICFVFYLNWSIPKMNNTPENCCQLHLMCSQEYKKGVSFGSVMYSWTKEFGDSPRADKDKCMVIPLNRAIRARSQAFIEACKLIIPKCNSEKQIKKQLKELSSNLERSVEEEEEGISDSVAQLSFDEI
In words: ELISA, full-length NSM coated, mini-scale expressed soluble scFv; vector control OD 0.02. For orientation: ELISA stands for enzyme-linked immunosorbent assay.

Changes are numbered by the printed parent chain.

Text: NSM-specific clones were identified by ELISA using mini-scale expressed soluble scFvs and full-length NSM protein for coating.

B1: scFv N3 (scFv)
scFv: AVTLDESGGGLQTPGGGLSLVCKASGFSFSSYSMGWVRQAPGKGLEWVAGIGSSVIRTYYAPAVKGRATIPRDNGQSTVRLQLNDLRAEDTGTYYCAKESGSGKWFSIGQIDAWGHGTEVTVSSGSTSGSGKPGPGEGSTKGAPALTQPSSVSANPGGTVQITCSGGSGSYGWFQQKSPGSAPVTVIYSSDKRPSDIPSRFSGSKSGSTGTLTITGVQADDEAVYFCGSADSSHLGIFGAGTTLTVLGQP
notes: Soluble scFv, mini-scale (pHEN4II, c-myc tag) or large-scale (pTMZ1, IMAC purified) from E. coli; also called clone N3; not shown: C-terminal c-myc and his-6 tags from the expression vector
Molecule B1 registered an OD410 nm of 0.2 OD.

B2: scFv N10 (scFv)
scFv: B1 scFv with S170N
notes: Soluble scFv, mini-scale (pHEN4II, c-myc tag) or large-scale (pTMZ1, IMAC purified) from E. coli; also called clone N10; not shown: C-terminal c-myc and his-6 tags from the expression vector
Molecule B2 gave an OD410 nm of 0.2 OD.

B3: scFv N12 (scFv)
scFv: AVTLDESGGGLQTPGGGLSLVCKASGFDFSSYDMVWVRQAPGKGLEWVAGISSGSGPNYGAAVKGRATISRDNGQSTVRLQLNNLRAEDTATYYCAKNEGADWCGHYYCSVAYIDAWGHGTEVTVSSGSTSGSGKPGPGEGSTKGAPALTQPSSVSANPGETVKITCSGGSGDHYGWFQQKSPGSAPVTVIYNNDNRPSDIPSRFSGSKSGSTHTLTITGVQVEDEAVYFCGNRDSSAGIFGAGTTLTVLGQP
notes: Soluble scFv, mini-scale (pHEN4II, c-myc tag) or large-scale (pTMZ1, IMAC purified) from E. coli; also called clone N12; not shown: C-terminal c-myc and his-6 tags from the expression vector
B3 registered an OD410 nm of 0.2 OD.

B4: scFv N5 (scFv)
scFv: B3 scFv with G56V, N193K, D195E
notes: Soluble scFv, mini-scale (pHEN4II, c-myc tag) or large-scale (pTMZ1, IMAC purified) from E. coli; also called clone N5; not shown: C-terminal c-myc and his-6 tags from the expression vector
With B4, the OD410 nm worked out at 0.2 OD.
